One assay has as its system OMP-Pn4 tumors. Kind of assay: Limiting dilution assay of cancer stem cell frequency in treated OMP-Pn4 tumors. The format is in vivo, NOD/SCID mice. Particulars: tumors after 41 days treatment; 30-810 cells re-injected, 75 days; L-Calc. The procedure:
Control and treated tumors from the OMP-Pn4 xenograft study described above (Example 7) were harvested at the end of 41 days treatment. The tumors were processed and dissociated into single cells. Tumor cells were then incubated with biotinylated mouse antibodies (α-mouse CD45-biotin 1:200 dilution and rat α-mouse H2 Kd-biotin 1:100 dilution, BioLegend, San Diego, Calif.) on ice for 30 min followed by addition of streptavidin-labeled magnetic beads (Invitrogen, Carlsbad, Calif.) to remove mouse cells. The remaining human cells in the suspension were collected, counted and diluted to appropriate cell doses (30, 90, 270 and 810 cells), mixed in the mixture of 1:1 (v/v) FACS buffer and Matrigel and injected subcutaneously in NOD/SCID mice (10 mice per cell dose per treatment group). Each dot in FIG. 40 represents the tumor volume of an individual mouse. The percentage of mice with detectable tumors was determined in all groups injected with anti-FZD antibody treated tumor cells and compared to the percentage of mice with detectable tumors in the controls. For example, the number of mice injected with 810 control-treated tumor cells that have detectable tumors was determined and compared to the number of mice injected with 810 FZD-antibody treated tumor cells that have detectable tumors. […]

Another assay deals with OMP-C28 tumors. In words: Flow cytometry of ESA and CD44 on cells of treated OMP-C28 tumors. Particulars: tumors harvested day 48; control antibody 64%. The assay is classed as in vivo, NOD/SCID mice. As to the method: Control and treated tumors from the OMP-C28 xenograft study described above (Example 7) were harvested at the end of the study (day 48). The tumors were processed and dissociated into single cells. Tumor cells were then incubated with biotinylated mouse antibodies (α-mouse CD45-biotin 1:200 dilution and rat α-mouse H2 Kd-biotin 1:100 dilution, BioLegend, San Diego, Calif.) on ice for 30 min followed by addition of streptavidin-labeled magnetic beads (Invitrogen, Carlsbad, Calif.) to remove mouse cells with the aid of a magnet.
For analysis of cell surface markers, the single tumor cell suspension was stained with anti-ESA (Biomeda) and anti-CD44 (BD Biosciences) antibodies which were directly conjugated to fluorochromes. Dead cells were excluded by using the viability dye DAPI. Flow cytometry was performed using a FACS Aria (Becton Dickinson). Side scatter and forward scatter profiles were used to eliminate cell clumps.
A general note: Flow cytometry measures light scatter and fluorescence of single cells or particles in a stream.

The target of assay [1] is T1, FZD7 (Homo sapiens, UniProt O75084). In words: Biacore affinity to recombinant Fzd Fc protein. The format is binding. Also on record: Fc (C). Particulars: IgG antibody; Fzd Fc immobilized on CM5 Biacore chip. As to the method:
The KDs of 18R8 and 18R5 antibodies were determined using the Biacore 2000 system from Biacore Lifescience (GE Healthcare). Specifically, purified anti-Fzd7 antibodies were serially diluted in 2-fold increments from 100 to 0.78 nM in HBS-P (0.01 M HEPES pH 7.4, 0.15 M NaCl, 0.005% v/v Surfactant P20). Each dilution was tested against recombinant Fzd Fc proteins immobilized onto a CM5 Biacore chip. The association and dissociation rates were measured and KD values determined using the Biaevaluation software program (Table 5, below).
On the technique in general: In SPR one partner is held on a chip, and binding of the other changes the refractive index at the surface.

A further assay deals with T2, FZD2 (Homo sapiens, UniProt Q14332).
T2 construct: plasmid DNA expressing full-length FZD1, 2, 5, 7 or 8; expressed in transfected cells; host or cells: HEK293
Kind of assay: FACS binding to FZD-transfected HEK293 cells. The following applies: FACS MFI dose-response, full-length FZD in HEK293, 20 μg/ml 4-fold dilutions. The procedure:
(§1) To measure antibody binding to FZD by flow cytometry HEK293 cells were co-transfected with FZD expression vectors and the transfection marker GFP. Twenty-four to forty-eight hours post-transfection, cells were collected in suspension and incubated on ice with anti-FZD antibodies (10 μg/ml unless otherwise indicated) or control IgG to detect background antibody binding. The cells were washed and primary antibodies detected with Fc domain-specific secondary antibodies conjugated to a fluorescent chromophore (e.g. phycoerythrin conjugated anti-human IgG). Labeled cells were then analyzed by flow cytometry to identify anti-FZD antibodies that specifically recognize cell surface expression of FZD protein. Monoclonal antibodies 18R5 and 18R8 recognized FZD on transfected cells. As shown in FIG. 1 and FIG. 2, both 18R8 and 18R5 bind to multiple FZD including FZD1, FZD2, FZD5, FZD7, and FZD8. […]
(§2) HEK293 cells were co-transfected with a plasmid DNA expressing full-length FZD1, 2, 5, 7 or 8 along with another plasmid expressing the reporter gene GFP used as a transfection marker. […] The cells were washed and bound anti-Fzd antibodies were detected with a secondary anti-human antibody conjugated to a fluorescent chromophore. Labeled cells were then detected and counted by FACS. The FACS data generated were expressed in Mean Fluorescence Intensity (MFI) units. […]

In a further assay the target is T3, FZD1 (Homo sapiens, UniProt Q9UP38).
T3 construct: plasmid DNA expressing full-length FZD1, 2, 5, 7 or 8; expressed in transfected cells; host or cells: HEK293
In words: FACS binding to FZD-transfected HEK293 cells. Particulars: FACS MFI dose-response, full-length FZD in HEK293, 20 μg/ml 4-fold dilutions. As to the method:
as §1, §2

In assay [2] the target is T1, FZD7. In words: FACS binding to FZD-transfected HEK293 cells. Particulars: FACS MFI dose-response, full-length FZD in HEK293, 20 μg/ml 4-fold dilutions. Also on record: plasmid DNA expressing full-length FZD1, 2, 5, 7 or 8; expressed in transfected cells; host or cells: HEK293. As to the method:
as §1, §2

pKd: −log10 of the molar value.

T2 sequence (Q14332 24-565): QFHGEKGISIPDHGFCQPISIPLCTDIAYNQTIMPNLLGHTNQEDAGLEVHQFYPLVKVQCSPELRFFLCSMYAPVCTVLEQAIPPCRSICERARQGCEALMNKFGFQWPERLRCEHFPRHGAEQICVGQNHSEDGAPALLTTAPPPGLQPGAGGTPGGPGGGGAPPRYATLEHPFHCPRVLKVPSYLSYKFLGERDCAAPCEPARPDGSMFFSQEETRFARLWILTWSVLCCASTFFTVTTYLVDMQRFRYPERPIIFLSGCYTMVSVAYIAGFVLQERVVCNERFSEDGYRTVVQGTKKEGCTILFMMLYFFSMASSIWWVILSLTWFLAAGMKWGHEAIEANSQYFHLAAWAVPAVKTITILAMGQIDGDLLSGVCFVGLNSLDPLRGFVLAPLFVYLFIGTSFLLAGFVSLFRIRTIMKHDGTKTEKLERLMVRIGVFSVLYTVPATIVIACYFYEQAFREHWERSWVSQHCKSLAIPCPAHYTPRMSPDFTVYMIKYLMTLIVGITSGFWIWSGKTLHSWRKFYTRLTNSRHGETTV
T3 sequence (Q9UP38 70-647): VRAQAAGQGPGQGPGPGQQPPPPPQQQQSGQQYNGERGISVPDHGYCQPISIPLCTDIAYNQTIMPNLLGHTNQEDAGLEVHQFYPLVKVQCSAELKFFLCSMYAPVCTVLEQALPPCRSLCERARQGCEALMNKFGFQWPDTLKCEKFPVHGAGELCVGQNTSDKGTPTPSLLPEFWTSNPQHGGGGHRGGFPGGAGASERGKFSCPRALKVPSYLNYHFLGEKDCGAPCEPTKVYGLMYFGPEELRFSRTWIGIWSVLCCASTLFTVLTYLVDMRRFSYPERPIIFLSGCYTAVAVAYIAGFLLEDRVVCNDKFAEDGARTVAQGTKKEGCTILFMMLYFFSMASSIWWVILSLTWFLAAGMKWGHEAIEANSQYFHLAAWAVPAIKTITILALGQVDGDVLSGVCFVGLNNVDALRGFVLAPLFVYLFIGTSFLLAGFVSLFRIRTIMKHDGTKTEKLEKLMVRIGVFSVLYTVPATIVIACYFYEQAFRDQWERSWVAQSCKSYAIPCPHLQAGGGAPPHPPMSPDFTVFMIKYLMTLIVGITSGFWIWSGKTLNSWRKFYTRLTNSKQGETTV

For `Nc1ccn([C@@H]2O[C@H](CO)[C@@H](O)C2(F)F)c(=O)n1` [gemcitabine, reference compound], the “cancer stem cell frequency” value with OMP-Pn4 tumors was “had no effect”.
As to `CCc1c2c(nc3ccc(OC(=O)N4CCC(N5CCCCC5)CC4)cc13)-c1cc3c(c(=O)n1C2)COC(=O)[C@]3(O)CC` [irinotecan, reference compound], in the assay with OMP-C28 tumors, the “bulk tumor population expressing both ESA and CD44 at high levels (double positive)” value is on record as 55%.
As to “18R5: human anti-FZD antibody; VH SEQ ID NO:10 (as 18R8), VL SEQ ID NO:14; binds FZD1, 2, 5, 7, 8”, in the assay with FZD7 [1], the negative-log Kd (pKd) (in general, the Kd on a negative log10 scale, so that one unit is a factor of ten) is 8.74. For the same compound, the results for the EC50 with FZD2, with FZD1 and with FZD7 [2] were 0.62 nM, 0.41 nM and 0.58 nM, respectively.

(Values after patent US8975044B2, “Polynucleotides encoding for frizzled-binding agents and uses thereof” (OncoMed Pharmaceuticals, Inc., priority 2008, dated 2015).)
